Stoichiometry N data for one substance are collected here from paper PMC8069557.

The assay addresses C-terminal extension of Bacillus cereus hemolysin II (HlyIICTD) (Bacillus cereus). The assay can be described thus: not stated; HlyIICTD in the presence of 4M urea.

For the substance “C-terminal extension of Bacillus cereus hemolysin II (HlyIICTD) (domain or fragment)”, the stoichiometry N (as a rule, a count of units in the complex or per binding partner) came out at 3.
